Data taken from US20250134019A1, “TRIKETONE DIOXYGENASE VARIANTS FOR HERBICIDE TOLERANCE” (Monsanto Technology LLC, priority 2022, published 2025).
Where a chain is given by its changes, count along the chain named. Numbers in names are those of the source.

Legend:
[1] = tested on: transgenic soybean plants; experiment: Mesotrione injury of R0 transgenic soybean plants expressing TDO homologs; assay type: in vivo; details: promoter Constitutive 1, 3' UTR A; 210 g a.i./ha mesotrione at V3-V4, rated 7-14 days after treatment; mean of all tested events
Method: Plant expression vectors comprising the selected TDO homologs under the control of one of two constitutive promoters were transformed into soybean via an Agrobacterium tumefaciens-mediated method. Following Agrobacterium transformation, R0 transgenic soybean plants containing a single copy of the transgene were identified through molecular characterization and segregation analysis. Transgenic and wild-type (control) plants were grown in 6-inch pots filled with BM7 soilless mix in a growth chamber under the conditions of 28° C./23° C. (light/dark) and a 16 hr light/8 hr dark photoperiod. Plants were fertilized with 15-5-15 liquid fertilizer at the V3-V4 growth stage and treated with 210 g a.i./ha mesotrione (1X=105 g a.i./ha; Callisto®, Syngenta in 1% crop oil). Plants were visually rated 7-14 days after treatment on a scale of 0% to 100%, with 0%=no injury and 100%=plant death, relative to the wild-type controls. The results summarized in Table 2 represent the mean of all tested events (10-15) for each construct.

[2] = Specific activity of purified TDO proteins, second hydroxylation of mesotrione; assay type: biochemical; details: FIG. 8
Description: Activity was expressed as nmol/min/mg protein and was the mean of three separate assays on the same enzyme sample (technical reps).
To test the hypothesis, the four amino acids of sorghum TDO corresponding to amino acid positions 230, 301, 332, and 335 in rice TDO were replaced with those of rice TDO. The corn, rice, sorghum, and the modified sorghum TDO genes were cloned into a pET28 vector for E. coli expression with His6 tag in the N-terminus. Subsequently, the proteins were expressed and purified by affinity chromatography. BL21-CodonPlus (DE3)-RIPL E. coli cells (Stratagene) were used for expression. Cells transformed with expression vector were grown in autoinduction media (AIM) supplemented with 100 μg mL-1 kanamycin and 34 μg mL-1 chloramphenicol.
TDO proteins used in this study were expressed in AIM cells using an auto-induction system as described by Studier (2014). Briefly, the recombinant cultures were grown at 37° C. for 3 hours and then 20° C. for one or two days. Cells were harvested by centrifugation and frozen at −80° C. The pellet was resuspended in lysis buffer (Bper and Yper [Pierce] with ratio 3 to 1, 25 mM Tris-HCl, 300 mM NaCl, 10 mM imidazole, pH 8.0). 150 mM ferric ammonium citrate (1000X) was added to the lysate to a final concentration of 150 µM and incubated on ice for 20 minutes. The lysate was centrifuged to clarify the supernatant. Clear supernatant was loaded onto a 5 mL Ni column connected to AKTA Express (GE Healthcare). […] Protein concentrations were determined spectrophotometrically based on their calculated molar absorption extinction coefficients at 280 nm.
TDO activity was measured by the second hydroxylation of mesotrione. For routine activity measurements of TDO and determining the kinetic properties of the second hydroxylation, the continuous change in A330, which is specific to the second hydroxylation and subsequent non-enzymatic water removal (i.e. the conversion of hydroxy-mesotrione to oxy-mesotrione), was monitored. […] The reaction proceeded until the maximum A330 was obtained (usually 20-120 minutes depending upon the concentration of mesotrione) and the linear portion of the curve was determined by visual inspection. […]
For the activity calculation, aliquots of the reaction were removed at various time points during the reaction and heated at 95° C. to halt the reaction. The reaction mixtures were analyzed by HPLC and mass spectrophotometry. By product conversation followed by peak integration on HPLC, a linear plot was obtained and the extinction co-efficient delta between the substrate (mesotrione) and the second product (oxy-mesotrione) was obtained according to the equation ΔA330=(εp-εs)*bΔp where ΔA330 is the change of absorbance at 330 nm and b is the light path.

[3] = tested on: transgenic soybean plants; experiment: TDO protein level (ELISA) and mesotrione injury of transgenic soybean at normal vs elevated temperature; assay type: in vivo; details: elevated temperature (99° F.)
Method: Os.TDO-transgenic soybean plants and wild-type control plants were grown at 80° F. until V2 growth stage, then half of the plants were transferred to 99° F. After 3 days, leaf samples were harvested to determine TDO protein levels, and plants were then treated with 2X and 8X rates of mesotrione. Crop injury ratings were taken 11 days after mesotrione treatment. […] The black bars represent TDO protein levels in parts per million per dry weight; the gray bars represent plant injury rate (%) to 2X and 8X mesotrione treatments.
Soybeans were planted and grown under typical greenhouse conditions (85° F. day, 75° F. night) until approximately V3 growth stage. At that time, half of the plants were moved to a higher temperature growth chamber (99° F. day, 82° F. night; 60% relative humidity) for three days prior to leaf sample collection and a spray application of 4X rate mesotrione. Mesotrione was applied to both greenhouse and growth chamber plants. Visual injury ratings were taken at 7 days after treatment. […] The gray bars represent mesotrione injury ratings at 85° F. and the black bars represent mesotrione injury ratings at 99° F. for these transgenic plants.
The TDO variants were grown at 85° F. (gray) vs 99° F. (black). […]
The enzyme activity was measured at room temperature for the hydroxylation of mesotrione, and was defined as Kcat/Km, M-1 sec-1 (specificity constant). […]

[4] = tested on: transgenic soybean plants; experiment: Field testing of variant D08 for mesotrione tolerance; assay type: in vivo; details: field setting, no control of temperature
Method: Since this testing was conducted in the field, there was no control on the temperature ranges the plants were exposed to.

transgenic cotton plants = experiment: Mesotrione treatment of cotton plants expressing TDO variants, crop injury; assay type: in vivo; details: for Crop Injury (%), 210 g/ha (2X) Mesotrione / Crop Injury (%), 840 g/ha (8X) Mesotrione: R2 cotton sprayed at V3
Method: Cotton is a crop of interest that is often exposed to high temperature growing conditions and thus, selected TDO variants were tested in cotton. Three TDO variants, D08, TDO_6, and TDO_8 were transformed into cotton (along with the Os.TDO control) using similar expression elements in single-cassette vectors or as part of multi-cassette vectors. R2 transgenic cotton plants were then screened for tolerance to mesotrione. Sixteen plants from two events each per construct were sprayed with two rates (2X and 8X) of mesotrione at V3 stage under normal (80° F.) and hot (100° F.) growing conditions. In addition, the effect of heat treatment on TDO accumulation in cotton plants were measured by ELISA. Cotton plants were planted and grown under normal greenhouse conditions (80° F. day/70° F. night) until V3 growth stage. Half of the plants were then moved to a higher temperature growth chamber (100° F. day/82° F. night) for the heat treatment, whereas the remaining half of the plants stayed in the same greenhouse (80° F. day/70° F. night). At day 3 after the plants were placed under different temperature conditions, leaf samples were collected for TDO protein measurement. The plants in 100° F. growth chamber and in 80° F. greenhouse were both sprayed with 2X mesotrione (210 g a.i./ha). Leaf samples were collected again 7 days after mesotrione treatment (DAT: Days After Treatment) for protein assay. Table 5 compares protein levels of the TDO variants in transgenic cotton plants grown under the two tested conditions. The protein levels for the TDO variants were measured at three time points for plants: 1) just before entering the high temperature treatment, 2) three days following placement into control (normal growth temperature) or high temperature (100° F.), and 3) 7 days after a 2X mesotrione spray.

[5] = specific activity of second hydroxylation

B1: Sb.TDO: TDO homolog from Sorghum bicolor, SEQ ID NO:6 (protein)
chain: MAGESWKVPTPVKDLAALVEEPPSQFVQREEDRPGSLMLAADMPDPLPIVDLDKMSTADEATKLRSALQTWGLFLATNHGIDVSLMEDLMKASREFFNQPLQERQKYSNLREGTRFQLEGYGSDPVIAQDHILDWSDRLQLKVEPEDERNLAQWPKHPESFRDLLHEYATKTKTVMVKILRAMAKTLELDEEDFIDQIGGRPQAYARFNYYPPCPRPELVLGIKAHSDGPLLTVLLVDREVGGLQIQRENKWFNVPSIPHALVINLGDSLEIMSNGIFKSPVHRVVTNAEKERISLAMLYAVQRDNVLEPAPGLLDEKRPAKYRRITEAHFLEGVKEHFSKGMRMIETLKI
modifications: Sorghum bicolor
In the case of B1, the “% Injury” value [1] is reported as 35% and the “specific activity of the second hydroxylation” value ([2]; purified His6-tagged protein from E. coli) is reported as “not significantly different from the blank”.

B2: SwM: Sb.TDO variant SwM, SEQ ID NO:48, substitutions P230T-A301S-L332R-V335I (protein)
chain: B1 chain with P230T, A301S, L332R, E333A, V335I
modifications: TDO variant sequence
In the case of B2, the “activity compared to the rice TDO protein” value [2, 5] is reported as “about 17%”.

B3: D08: Os.TDO variant D08, SEQ ID NO:18, 20 amino acid changes relative to Os.TDO (protein)
chain: MADESWRAPALVQELAAKGVEEPPSRYLLREQDRPDVKLVAAELPEPIPVVDLGRLDGAEEATKLRVALQNWGFFLLTNHGIEASLMDDVMNLSREFFNQPIERKQKFSNLIDGKHFQIEGYGTDRVVTQDQVLDWSDRLHLRVEPKEEQDLAFWPDHPESFRDVLHKYASGCKRIRDDIIQAMAKLLELDEDYFLDRFNEAPTFARFNYYPPCPRPDLVFGIRPHSDGGLLTILLVDKDVGGLQVQRDGKWSNVPATPHTLLINLGDTMEVMSNGIFKSPVHRVVTNAEKERISLAMLYSVNDEKDIEPAAGLLDENRPARYRKVSVEEFRAGIFGKFSRGERYIDSLRI
modifications: TDO variant sequence
For B3, the “injury ratings after mesotrione application relative to Os.TDO control” value [3] was “possibly trending lower injury relative to the Os.TDO control”, the “tolerance to mesotrione spray treatment” value [4] was “good tolerance” and the “Crop Injury (%), 210 g/ha (2X) Mesotrione” value (transgenic cotton plants; Under 80° F.) was 0%. The “Crop Injury (%), 840 g/ha (8X) Mesotrione” value (transgenic cotton plants; Under 80° F.) was 0%, the “Crop Injury (%), 210 g/ha (2X) Mesotrione” value (transgenic cotton plants; Under 100° F.) was 0% and the “Crop Injury (%), 840 g/ha (8X) Mesotrione” value (transgenic cotton plants; Under 100° F.) was 0%. For the same molecule, the “injury rates relative to Os.TDO controls” value (transgenic cotton plants; cotton at the higher temperature) was “trending even lower than the Os.TDO controls”.

B4: Zm.TDO: TDO homolog from Zea mays, SEQ ID NO:4 (protein)
chain: MADESWRVPTPVQELAATLEEPPSRYVLQEKDRRGSPLVADDMPEPLPVINLSRLSEDATEAAKLESALQSWGLVLVTNHGIETSLMDGVMDASREFFRQPLEEKQKYSNLIDGKRFQVEGYGNDRVATERQILNWNDRLHLKVAPEDERDYTHWPKHPESFRDVLHEYALETKRVRDGIFRATAKILELDEDHFVRLISDRAAAFARFNYYPPCPRPDLVNGVQPHSDAGVLTILLVDKDVRGLQVQRDGVWYNVPPMPYTLLINLGDIMEIMSNGILKSPVHRVVTNAEKERISLAVFYGVGAENALEPAAGLLDEKRPARYRKISMTDFIAGIHGQFSRGTRFIESLKI
modifications: Zea mays
In the case of B4, the “% Injury” value [1] is reported as 15% and the “activity lower than rice TDO” value [2, 5] is reported as “about 30%”.
